Source: publication PMC3900688, “Expression and Purification of Chaperone-Active Recombinant Clusterin” (PLoS ONE, 2014)

B1: wild type clusterin purified from human plasma (natural protein)
chain 1: DQTVSDNELQEMSNQGSKYVNKEIQNAVNGVKQIKTLIEKTNEERKTLLSNLEEAKKKKEDALNETRESETKLKELPGVCNETMMALWEECKPCLKQTCMKFYARVCRSGSGLVGRQLEEFLNQSSPFYFWMNGDRIDSLLENDRQQTHMLDVMQDHFSRASSIIDELFQDRFFTREPQDTYHYLPFSLPHRRPHFFFPKSRIVR
chain 2: SLMPFSPYEPLNFHAMFQPFLEMIHEAQQAMDIHFHSPAFQHPPTEFIREGDDDRTVCREIRHNSTGCLRMKDQCDKCREILSVDCSTNNPSQAKLRRELDESLQVAERLTRKYNELLKSYQWKMLNTSSLLEQLNEQFNWVSRLANLTQGEDQYYLRVTTVASHTSDSDVPSGVTEVVVKLFDSDPITVTVPVEVSRKNPKFMETVAEKALQEYRKKHREE
modifications: glycosylated | glycosylated
notes: clusterin beta-chain, human; joined to the alpha-chain by 5 disulfide bonds; clusterin alpha-chain, human; joined to the beta-chain by 5 disulfide bonds; Disulphide-bonded alpha-beta heterodimer with heterogeneous glycosylation, from pooled donors; also called wtCLU; human plasma clusterin
B2: mammalian cell-expressed recombinant clusterin secreted by stably transfected HEK293 cells (natural protein, human)
chain 1: DQTVSDNELQEMSNQGSKYVNKEIQNAVNGVKQIKTLIEKTNEERKTLLSNLEEAKKKKEDALNETRESETKLKELPGVCNETMMALWEECKPCLKQTCMKFYARVCRSGSGLVGRQLEEFLNQSSPFYFWMNGDRIDSLLENDRQQTHMLDVMQDHFSRASSIIDELFQDRFFTREPQDTYHYLPFSLPHRRPHFFFPKSRIVR
chain 2: SLMPFSPYEPLNFHAMFQPFLEMIHEAQQAMDIHFHSPAFQHPPTEFIREGDDDRTVCREIRHNSTGCLRMKDQCDKCREILSVDCSTNNPSQAKLRRELDESLQVAERLTRKYNELLKSYQWKMLNTSSLLEQLNEQFNWVSRLANLTQGEDQYYLRVTTVASHTSDSDVPSGVTEVVVKLFDSDPITVTVPVEVSRKNPKFMETVAEKALQEYRKKHREE
modifications: glycosylated | glycosylated
notes: clusterin beta-chain, human, from human CLU cDNA in pRcCMV; secreted and cleaved into alpha- and beta-chains; clusterin alpha-chain, human, from human CLU cDNA in pRcCMV; Disulphide-bonded alpha-beta heterodimer, less glycosylated than plasma clusterin; No tag is stated; also called m-rCLU; rCLU

Biological target: the molecule itself
Assay: SEC; Superose 6 10/300 column in PBS/Az, 0.3 ml/min, A280 monitored; self-association (mixture of oligomers)

Protein	binding result
B1	binds
B2	binds
